According to publication doi:10.1101/2020.03.05.978023:

Key:
[1] = target: Human DND1 (Dead end protein homolog 1) RRM2 domain (139-217) (human); assay: SEC
[2] = target: Human DND1 (Dead end protein homolog 1) RRM2 domain (139-217) (human); assay: crystal structure

- stoichiometry N [1]: 2
- stoichiometry N [2]: 2
Substance: Human DND1 (Dead end protein homolog 1) RRM2 domain (139-217) (domain or fragment)
